The values below come from paper PMC8042443.

In this assay the target is GST fusion protein of the α1-syntrophin PDZ domain (UniProt Q61234). Put plainly: pull-down; GST fusion proteins immobilised on beads, incubated 1 to 2 h at 4 °C with lysates of MEFs expressing HA-tagged DGKζ constructs; washed at least four times with ice-cold lysis buffer; bound DGKζ detected by anti-HA immunoblot; in some panels cells were treated with vehicle, 100 nM PMA, or 1 μM Gö6976 before PMA. (In western blotting, separated proteins are transferred to a membrane and probed.)
GST fusion protein of the α1-syntrophin PDZ domain, sequence (Q61234 81-164): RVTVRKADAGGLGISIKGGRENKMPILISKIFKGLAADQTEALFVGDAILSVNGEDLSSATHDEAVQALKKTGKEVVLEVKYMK

HA-tagged DGKζ^M1 (all four serine residues in the MARCKS domain changed to aspartate), sequence (Q13574 whole entry, the tested form may be a part): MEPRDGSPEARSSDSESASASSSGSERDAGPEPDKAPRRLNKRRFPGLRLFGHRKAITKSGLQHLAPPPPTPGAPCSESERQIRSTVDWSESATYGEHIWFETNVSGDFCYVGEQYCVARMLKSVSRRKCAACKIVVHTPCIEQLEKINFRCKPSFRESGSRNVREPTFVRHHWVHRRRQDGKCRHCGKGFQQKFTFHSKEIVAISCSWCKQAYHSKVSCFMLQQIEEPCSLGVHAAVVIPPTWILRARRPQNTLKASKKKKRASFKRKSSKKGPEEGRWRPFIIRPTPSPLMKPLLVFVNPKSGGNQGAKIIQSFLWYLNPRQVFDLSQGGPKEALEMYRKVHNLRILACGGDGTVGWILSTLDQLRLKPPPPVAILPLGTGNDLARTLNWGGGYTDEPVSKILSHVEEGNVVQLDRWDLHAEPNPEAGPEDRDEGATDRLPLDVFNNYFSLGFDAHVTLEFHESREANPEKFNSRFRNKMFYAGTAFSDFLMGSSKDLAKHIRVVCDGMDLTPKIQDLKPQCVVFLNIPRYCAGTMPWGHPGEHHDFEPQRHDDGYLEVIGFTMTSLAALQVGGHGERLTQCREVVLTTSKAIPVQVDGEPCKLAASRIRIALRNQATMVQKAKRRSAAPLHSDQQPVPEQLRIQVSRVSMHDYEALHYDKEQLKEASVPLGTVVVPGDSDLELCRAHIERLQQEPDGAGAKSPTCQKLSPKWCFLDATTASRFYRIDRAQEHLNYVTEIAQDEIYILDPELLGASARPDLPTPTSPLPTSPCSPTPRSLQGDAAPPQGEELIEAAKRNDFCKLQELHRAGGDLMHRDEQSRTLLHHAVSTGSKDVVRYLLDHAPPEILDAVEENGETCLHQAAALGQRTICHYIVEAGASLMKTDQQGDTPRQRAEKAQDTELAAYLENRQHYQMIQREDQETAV

With “HA-tagged DGKζ^M1 (all four serine residues in the MARCKS domain changed to aspartate) (from UniProt Q13574 1-928) (enzyme)”, the fold binding against DGKζ^WT was 2.5 fold.
